Results on one substance are retold here after article PMC11903750.

For experiment [1], the target named is 30S ribosomal subunit (E. coli) (UniProt P0A7R9). The experiment in a line: FRET or BRET; as a4, with 5 µM edeine. On the technique in general: Bioluminescence resonance energy transfer reports proximity on the nanometre scale.
For experiment [2] the target is unchanged. Kind of experiment: FRET or BRET; as a4, with 5 µM GE81112.

“IF3 E166C, double-labelled (IF3DL) (from UniProt P0A707 1-180) (natural protein)” displayed a fold reduction of koff with edeine against no antibiotic in experiment [1] of 4 fold. This substance also registered a fold reduction of koff with GE81112 against no antibiotic in experiment [2] of 2 fold.
